Assay results published in US4508828A, “Bioassay of parathyroid hormone” (Immuno Nuclear Corporation, priority 1983, dated 1985).
Entries after “also recorded” stand apart in the source; their conditions may differ. Blank lines part the entries; values can stand above or below the molecule they belong to.

Molecular target: T1, adenylate cyclase-coupled PTH receptors (Rattus norvegicus, UniProt P25961)
T1 construct: 96-well tissue culture plate containing the rat osteogenic sarcoma cells; endogenous in cells; host or cells: rat osteogenic sarcoma cells (obtained by the methods of Partridge et al. 1981 and Majeska et al. 1980)
T1 sequence (P25961 27-591): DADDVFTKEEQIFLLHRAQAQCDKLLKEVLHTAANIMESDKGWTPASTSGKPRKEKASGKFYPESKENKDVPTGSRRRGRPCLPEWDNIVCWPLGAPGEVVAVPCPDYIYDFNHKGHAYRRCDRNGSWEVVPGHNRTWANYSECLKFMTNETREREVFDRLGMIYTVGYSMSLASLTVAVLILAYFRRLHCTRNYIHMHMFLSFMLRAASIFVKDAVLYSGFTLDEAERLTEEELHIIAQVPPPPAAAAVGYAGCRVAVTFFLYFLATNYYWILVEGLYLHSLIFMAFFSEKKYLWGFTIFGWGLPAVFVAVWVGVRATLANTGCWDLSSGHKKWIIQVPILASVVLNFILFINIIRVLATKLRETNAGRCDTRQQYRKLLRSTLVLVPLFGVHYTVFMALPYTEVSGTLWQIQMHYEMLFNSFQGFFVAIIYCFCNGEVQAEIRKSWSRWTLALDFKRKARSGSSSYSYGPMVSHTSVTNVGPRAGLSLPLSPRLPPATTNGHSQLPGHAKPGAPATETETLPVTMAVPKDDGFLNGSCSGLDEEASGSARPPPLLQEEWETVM
Experiment: PTH bioassay: cAMP generation in rat osteogenic sarcoma cell culture, cAMP by radioimmunoassay
Assay type: cell-based
Conditions: for bioactivity (cAMP generation): standards of the peptide alone, FIG. 3; for cell culture response, human versus bovine bioactive PTH: hPTH^1-34 compared with bPTH^1-34, FIG. 2; for suppression of cAMP generation by serum in the bioassay medium: FIG. 5
Method: Rat osteogenic sarcoma cells are maintained in culture in Dulbecco's modified Eagle medium ("DMEM"), disclosed in R. Dulbecco, VIROLOGY, 8: 396 (1959), J. Smith, et al., VIROLOGY, 12: 185-196 (1960), Tissue Culture Standards Committee, IN VITRO, 6(2): 93 and available from Gibco, Grand Island, N.Y., containing 1% fetal calf serum, 9% heat-inactivated horse serum, 100 units/ml of penecilin G and 100 μg/ml streptomycin sulfate in sodium sulfate and normal saline solution, available as a concentrate from Gibco, supra. Cells are maintained in this medium in a humidified atmosphere of 5% carbon dioxide and 95% air at 37° C. This rat osteogenic sarcoma cell culture can be obtained according to the methods set forth in N. Partridge, et al., "Functional Properties Of Hormonally Responsive Cultured Normal And Malignant Rat Ostoblastic Cells," ENDOCRINOLOGY, 108: 213-219 (1981), which is incorporated in its entirety herein by reference thereto. This method of obtaining the cell culture is further described in R. Majeska, et al., "Parathyroid Hormone--Responsive Clonal Cell Lines From Rat Osteosarcoma," ENDOCRINOLOGY, 107: 1494-1503 (1980) and R. Majeska, "Maintenance Of Parathyroid Hormone Response in Clonal Rat Osteosarcoma Cell Lines," EXP. CELL RES., 111: 465 (1978), also incorporated in their entirety herein by reference thereto.
Cells are subcultured from confluent monolayers by removing the culture medium, rinsing the cell layer with Dulbecco's phosphate buffered saline, 0.2 g/l KCl, 0.2 g/l KH2 PO4, […], and Na2 HPO4.7H2 O and available from Gibco, supra, and adding trypsin/EDTA, 0.5 g trypsin (1:250) and 0.2 g EDTA-4Na/l Hank's balanced salt solution without CaCl2, MGCL2.6H2 O and MgSO4.7H2 O and available from Gibco, supra, to cover the cell layer. After 1 minute at 20°-25° C., the trypsin/EDTA is removed and the cells are incubated for 2-3 minutes at 37° C. The cells are resuspended in DMEM and one-fifth to one-tenth of the cells are added to a culture flask of equal size.
For use in the bioassay of PTH, the above cell suspension is diluted with 4 volumes of DMEM and 0.1 ml of the suspension is pipetted into each well of a 96-well tissue culture plate available from Becton Dickinson Labware, Oxnard, Calif. The cells are cultured in the same atmosphere as above and are ready for use in the bioassay in 24-28 hours.
15. The dried eluates are dissolved in 0.6 ml of bioassay medium at 20°-25° C., said bioassay medium consisting of 0.1% glucose, 1% BSA, 1 mM methylisobutylxanthine, and 0.005% phenol red in Dulbecco's phosphate buffer saline (pH 7.3 or within range of about 7-7.5).
To perform the bioassay of PTH, the medium is removed from all wells of the 96-well tissue culture plate containing the rat osteogenic sarcoma cells by inversion of the plate and blotting of any remaining drops of medium. The plate is replaced upright and 100 μl of the redissolved N-terminal affinity column eluates are added to each of 4 wells of the plate. The plate is incubated at 20°-25° C. for 30 minutes. At this time, the plate is inverted and blotted to remove all remaining medium, replaced upright and placed on ice.
Each well is washed 3 times by addition of 300 μl of ice cold 0.85% saline followed by inversion and […]. After the third saline wash, 200 μl of ice cold 95% ethyl alcohol containing 0.02M HCl (EtOH/HCl) is added to each well and the plate is incubated at -20° C. for 16-24 hours in order to extract the cAMP from the cells. At the end of this extraction, the EtOH/HCl is removed from each well with a pipet and rinsed with an additional 200 μl of EtOH/HCl. The rinse is combined with the original extract and the solution is dried. An appropriate device for drying the EtOH/HCl samples is a Speed-Vac Concentrator/Evaporator, available from Savant Instruments, Inc., Hicksville, N.Y. The amount of cAMP extracted from the cell layer in each well is quantitated using a radioimmunoassay for cAMP. […]

antagonism of bPTH^1-84 (inhibition of cAMP generation) (bPTH^1-84 added to the standards, FIG. 4): very strong antagonist | bioactivity (cAMP generation): virtual absence of bioactivity | bioactivity (cAMP generation) (listed as hPTH^3-34 amide): not bioactive
Molecule: (norleucine^8,18)bPTH^3-34 amide

Molecule: bPTH^1-34: bovine parathyroid hormone fragment 1-34
cell culture response, human versus bovine bioactive PTH: respond similarly; also recorded: very close correlation of response

Molecule: hPTH^1-34: human parathyroid hormone fragment 1-34, available from Peninsula Laboratories
cell culture response, human versus bovine bioactive PTH: respond similarly; also recorded: very close correlation of response

Molecule: hPTH^37-84: human parathyroid hormone fragment 37-84 (LGAPLAPRDAGSQRPRKKEDNVLVESHEKSLGEADKADVNVLTKAKSQ; Parathyroid hormone; UniProt P01270 68-115, looked up, fragment)
bioactivity (cAMP generation): not bioactive; also recorded: virtual absence of bioactivity

Molecule: hPTH^65-84: human parathyroid hormone fragment 65-84 (KSLGEADKADVNVLTKAKSQ; Parathyroid hormone; UniProt P01270 96-115, looked up, fragment)
bioactivity (cAMP generation): not bioactive; also recorded: virtual absence of bioactivity

suppression of cAMP generation by serum in the bioassay medium (10% serum (fetal calf serum) in bioassay medium): 50 fold | suppression of cAMP generation by serum in the bioassay medium (50% serum (human serum) in bioassay medium): 100 fold
B1: PTH^1-84: parathyroid hormone 1-84 standards of the bioassay (bovine PTH 1-84 standard) (protein, UniProt P01268 32-115, looked up)
Parathyroid hormone: AVSEIQFMHNLGKHLSSMERVEWLRKKLQDVHNFVALGASIAYRDGSSQRPRKKEDNVLVESHQKSLGEADKADVDVLIKAKPQ
modifications: Parathyroid hormone
